The results in this text go back to article PMC4339810 (Scientific Reports, 2015).

The labels stand for the following.
B1: recombinant HMGA1a (natural protein, UniProt P17096-1 1-107, looked up)
chain: MSESSSKSSQPLASKQEKDGTEKRGRGRPRKQPPVSPGTALVGSQKEPSEVPTPKRPRGRPKGSKNKGAAKTRKTTTTPGRKPRGRPKKLEKEEEEGISQESSEEEQ
notes: HMGA1a, isoform of HMGA1 from alternative splicing
B3: recombinant HMGA1b (natural protein, UniProt P17096-2 1-96, looked up)
chain: MSESSSKSSQPLASKQEKDGTEKRGRGRPRKQPPKEPSEVPTPKRPRGRPKGSKNKGAAKTRKTTTTPGRKPRGRPKKLEKEEEEGISQESSEEEQ
notes: HMGA1b, isoform of HMGA1 from alternative splicing

One series addresses T1, GST-NPM1 1-259 (UniProt P06748 1-259).
T1 construct: nucleophosmin (NPM1), residues 1-259; Plasmid provided by P.G. Pelicci
As to the kind of experiment: pull-down; GST-fused NPM1 forms as bait with recombinant HMGA proteins; bound proteins seen by western blot with anti-HMGA1 and anti-HMGA2 antibodies. Particulars: both partners purified. A general note: A western blot detects proteins with antibodies after separation by electrophoresis.

For another series, the target named is T2, GST-NPM1 1-186 (UniProt P06748 1-186).
T2 construct: Plasmid provided by P.G. Pelicci
The description is as above. The settings on record: both partners purified.

Series [1] deals with T3, GST-NPM1 1-295 (full length) (UniProt P06748 1-294).
T3 construct: nucleophosmin (NPM1), printed as full length (1-295); Plasmid provided by P.G. Pelicci; pGEX 4T3 GST-NPM1 1-295 is named as the PCR template; also called full-length GST-NPM1; GST-fused NPM1 full length (1-295); source: for EMSA eluted from Glutathione Sepharose 4B
T3 sequence (P06748 whole entry, the tested form may be a part): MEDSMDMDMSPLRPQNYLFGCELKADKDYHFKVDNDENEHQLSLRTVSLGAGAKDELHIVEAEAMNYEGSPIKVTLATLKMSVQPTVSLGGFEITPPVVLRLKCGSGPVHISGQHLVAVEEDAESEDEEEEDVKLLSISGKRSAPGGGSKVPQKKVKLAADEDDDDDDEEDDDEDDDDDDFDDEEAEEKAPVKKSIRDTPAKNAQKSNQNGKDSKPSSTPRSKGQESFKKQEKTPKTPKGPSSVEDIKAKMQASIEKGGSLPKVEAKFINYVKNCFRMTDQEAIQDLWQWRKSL
The series is described as above. The settings on record: both partners purified.

The next series deals with T4, HMGA2 (UniProt P52926 1-109).
T4 sequence: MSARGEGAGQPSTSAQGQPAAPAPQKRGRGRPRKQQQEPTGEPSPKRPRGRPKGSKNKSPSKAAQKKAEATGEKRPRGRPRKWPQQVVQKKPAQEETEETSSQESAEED
As to the kind of experiment: EMSA; no NPM1; EMSA: 4 pmol HMGA preincubated 10 min at 4°C with GST-NPM1/GST in 25 mM Tris/HCl pH 8, 5 mM GSH (8 uL); then 0.1 pmol DNA for 10 min in 180 mM NaCl, 1 mM MgCl2. (In general: Mobility shift assays separate free from complexed probe on a gel.)

Series [2] has as its target T5, HMGA1a (UniProt P17096 1-107). Described as above.
In series [3] the target is T5, HMGA1a. As to the kind of experiment: EMSA; no NPM1; two complexes; EMSA: 4 pmol HMGA preincubated 10 min at 4°C with GST-NPM1/GST in 25 mM Tris/HCl pH 8, 5 mM GSH (8 uL); then 0.1 pmol DNA for 10 min in 180 mM NaCl, 1 mM MgCl2.
In the series “recombinant HMGA1a” the target is B1. As to the kind of experiment: pull-down; GST-fused NPM1 forms as bait with recombinant HMGA proteins; bound proteins seen by western blot with anti-HMGA1 and anti-HMGA2 antibodies. Particulars: both partners purified.
The target in the series “recombinant HMGA1b” is B3. The series is described as above. Particulars: both partners purified.

T1 sequence (P06748 1-259): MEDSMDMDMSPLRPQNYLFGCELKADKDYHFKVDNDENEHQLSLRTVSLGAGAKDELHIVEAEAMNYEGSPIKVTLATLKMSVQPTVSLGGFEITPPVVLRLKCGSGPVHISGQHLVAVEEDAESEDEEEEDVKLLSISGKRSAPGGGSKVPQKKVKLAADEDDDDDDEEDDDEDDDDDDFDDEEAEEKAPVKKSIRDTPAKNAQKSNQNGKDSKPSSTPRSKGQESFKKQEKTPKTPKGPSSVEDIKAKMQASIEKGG

For B1, the binding result (with GST-NPM1 1-259; in the series with GST-NPM1 1-186; in series [1]) was “binds” each time.

B2: HCRII (dsDNA)
DNA 1: GACACATTAATCTATAATCAAATA
DNA 2: TATTTGATTATAGATTAATGTGTC
As for B2, the binding result with HMGA2 and with HMGA1a [2] was “binds” each time.

As for B3, the binding result (in the series with GST-NPM1 1-259; in the series with GST-NPM1 1-186; in series [1]) was “binds” throughout.

B4: E3 (dsDNA)
DNA 1: AGAAAAACTCCATCTAAAAAAAAAAAAAAAAAAAAAAAAAAACA
DNA 2: TGTTTTTTTTTTTTTTTTTTTTTTTTTTTAGATGGAGTTTTTCT
For B4, the binding result with HMGA1a [3] is “binds”.

B5: GST-NPM1 117-186 (domain or fragment, UniProt P06748 117-186, looked up)
chain: VAVEEDAESEDEEEEDVKLLSISGKRSAPGGGSKVPQKKVKLAADEDDDDDDEEDDDEDDDDDDFDDEEA
notes: also called central portion of NPM1 containing the two acidic clusters (A2 and A3)
For B5, the binding result with recombinant HMGA1a and in the series with recombinant HMGA1b was “binds” in each case.
